Results reported in US20160257763A1 (Zymeworks, published 2016).

Columns and labels:
[1] = target: T1, Recombinant human EGFR-ED (human, UniProt P00533 25-645); experiment: SPR (ProteOn XPR36); v1323 captured on immobilized anti-human IgG, recombinant human EGFR-ED injected as analyte; global 1:1 Langmuir fit
T1 construct: extracellular domain; also called extracellular domain (ED) of EGFR
Experimental: (§1) The ability of v1323 comprising an EGFR binding domain to bind to the extracellular domain (ED) of EGFR was tested by Surface Plasmon Resonance (SPR) using a ProteOn XPR36 system from BIO-RAD.
(§2) Approximately 3000 RU of anti-human IgG 25 ug/ml was immobilized on a GLC chip using standard amine coupling. Exemplary SDACs were captured on the anti-human IgG immobilized chip to capture level of approximately 700 RU. Recombinant human EGFR-ED was diluted in running buffer and injected at a flow rate of 50 μl/min for 2 minutes, followed by dissociation for another 4 minutes. Sensograms were fit globally to a 1:1 Langmuir binding model. All experiments were conducted at room temperature.

[2] = target: T1, Recombinant human EGFR-ED; experiment: SPR, v1323 captured by anti-human IgG, EGFR-ED injected, 1:1 Langmuir fit
Experimental: as §1, §2

B1: v1323, monovalent anti-EGFR antibody (EG2) (Fc fusion)
VHH: QVKLEESGGGLVQAGDSLRVSCAASGRDFSDYVMGWFRQAPGKEREFVAAISRNGLTTRYADSVKGRFTISRDNDKNMVYLQMNSLKPEDTAVYYCAVNSAGTYVSPRSREYDYWGQGTQVTVSS
notes: EU numbering; no light chain, no CH1; also called exemplary heteromultimer; not shown: hinge/linker between the VhH and the Fc (not described), and with it the heterodimer Fc carrier, left out of the chains
- Kd [1]: 4.05 nM
- koff [1]: 0.004 s⁻¹
- kon [1]: 989000 M⁻¹ s⁻¹
- Kd [2]: 3 to 4.5 nM
